Source: patent US9926375B2, “Anti-endoglin antibodies and uses thereof” (Tracon Pharmaceuticals, Inc., priority 2014, dated 2018)

Assays:
[1] = test system: BLM-induced pulmonary fibrosis model mice; assay: Bleomycin-induced pulmonary fibrosis model; assay type: in vivo, mouse; details: vs isotype-control antibody group (isotype-control vs disease control group); day 21; Bonferroni, P<0.05
Method: Pathogen-free 7 weeks old female C57BL/6J mice were obtained from Japan SLC, Inc. (Japan). At day 0, 60 mice were induced to develop pulmonary fibrosis by a single intratracheal administration of bleomycin sulphate (BLM, Nippon Kayaku, Japan) in saline at a dose of 3 mg/kg, in a volume of 50 μL per animal using Microsprayer® (Penn-Century, USA).
BLM-induced pulmonary fibrosis model mice were randomized into 4 groups of 12 mice based on the body weight on the day before the start of treatment.
Group 3 (M1043 Antibody): Twelve BLM-induced pulmonary fibrosis model mice were intravenously administered vehicle supplemented with M1043 at a dose of 10 mg/kg twice weekly at day 7, 10, 14 and 17.
Group 4 (TRC105 human/mouse chimeric antibody): Twelve BLM-induced pulmonary fibrosis model mice were intravenously administered vehicle supplemented with TRC105 at a dose of 10 mg/kg twice weekly at day 7, 10, 14 and 17.
Group 5 (BIBF1120 inhibitor for Idiopathic Pulmonary Fibrosis—positive control, Boehringer Ingelheim): Twelve BLM-induced pulmonary fibrosis model mice were orally administered 1% CMC supplemented with BIBF1120 at a dose of 100 mg/kg once daily from day 7 to 21. […]
Histological analysis of lung sections was conducted by practitioners who are not aware of the Group identity. Masson's Trichrome staining is conducted and an Ashcroft Score estimate was determined. […]

mouse endoglin = target: T1, mouse endoglin (Mus musculus, UniProt Q63961); assay: ELISA binding of M1043 antibody to mouse endoglin; details: 10 μg/ml to 0.014 μg/ml; plate coated with mouse endoglin 1 μg/ml
T1 construct: purchased R&D Systems 1320-EN-025
T1 sequence (Q63961 27-581 limits assumed): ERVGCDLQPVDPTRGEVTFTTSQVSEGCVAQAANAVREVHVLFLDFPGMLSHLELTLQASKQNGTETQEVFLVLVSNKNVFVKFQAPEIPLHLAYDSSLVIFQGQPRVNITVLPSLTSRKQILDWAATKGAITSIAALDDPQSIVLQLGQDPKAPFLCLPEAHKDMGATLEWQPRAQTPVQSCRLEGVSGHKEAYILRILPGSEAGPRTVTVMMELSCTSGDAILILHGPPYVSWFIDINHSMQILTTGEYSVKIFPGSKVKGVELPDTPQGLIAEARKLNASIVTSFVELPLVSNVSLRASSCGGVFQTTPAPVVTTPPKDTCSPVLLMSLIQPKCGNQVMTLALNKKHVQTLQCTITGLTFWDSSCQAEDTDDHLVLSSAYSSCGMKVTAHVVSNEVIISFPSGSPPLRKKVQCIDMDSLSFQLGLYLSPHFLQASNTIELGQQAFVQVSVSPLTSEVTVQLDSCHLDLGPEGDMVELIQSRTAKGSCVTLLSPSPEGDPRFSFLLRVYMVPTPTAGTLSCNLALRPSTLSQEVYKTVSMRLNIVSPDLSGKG
Method: An ELISA was established to determine the binding of M1043 antibody to mouse endoglin as follows: Nunc Immuno MaxiSorp 96 well flat bottom plates (Fisher, Cat. No. DIS-971-030J) were coated with mouse endoglin (R&D Systems, Cat. No. 1320-EN-025) at 1 μg/ml in PBS overnight at 4° C. The following day the plate was washed three times with PBST before blocking with PBST/3% Marvel at room temperature for 1 hour. After blocking, the plate was washed three times with PBST, and varying concentrations (10 μg/ml to 0.014 μg/ml in three-fold serial dilutions) of either M1043 or an irrelevant rat IgG1 (Affymetrix, Cat. No. 14-4301) in PBST/3% Marvel were added to the plate and incubated for 1 hour at room temperature. Binding of the antibodies was detected via anti-rat IgG peroxidase (Sigma, Cat. No. A9037) and TMB single solution substrate (Invitrogen, Cat. No. 00-2023). The reaction was stopped by adding 3 M HCl and OD450 nm values were measured on a Dynex MRX TCII plate reader.

B1: M1043: rat IgG1 antibody that binds mouse endoglin and competitively inhibits mouse BMP binding; VH SEQ ID NO: 124, VL SEQ ID NO: 125 (antibody, V domains shown)
VH: QVQLQQSGAELVKPGSSVKISCKASGYTFTSYDMHWIKQQPGNGLEWIGWIYPGNGNTKYNQKFNGKATLTADKSSSTAYMQLSSLTSEDSAVYFCARGKFGVGDYWGQGVMVTVSS
VL: DTVLTQSPALAVSPGERVSISCRASEGVNSYMHWYQQKPGQQPKLLIYIASNLASGVPARFSGSGSGTDFTLTIDPVEADDTATYFCQQSWNDPYTFGAGTKLELKR
For B1, the “Ashcroft score, comparison between groups” value [1] was “no significant difference” and the “Binding to mouse endoglin (ELISA)” value (mouse endoglin) was “binds specifically to mouse endoglin”.
